In patent US20260022175A1 (Chugai, published 2026):
Substitutions are numbered along the chain they refer to.

Assays:
[1] = biological target: T1, human FcγRIIb extracellular domain (human, UniProt P31994 43-217); test: SPR Biacore 8K+, antibody captured, FcγR as analyte, steady state affinity model
T1 construct: extracellular domain; also called hFcγR IIb
T1 sequence (looked up): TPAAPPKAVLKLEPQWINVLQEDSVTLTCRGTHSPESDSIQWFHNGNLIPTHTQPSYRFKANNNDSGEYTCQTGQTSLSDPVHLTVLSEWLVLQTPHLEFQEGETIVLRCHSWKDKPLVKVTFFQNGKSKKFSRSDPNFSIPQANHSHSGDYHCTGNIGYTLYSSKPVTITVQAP
Method: (§1) The interaction between the produced antibodies and human FcγRs was analyzed using Biacore 8K+ by the method below. For the running buffer, 50 mM Na-Phosphate, 150 mM NaCl, and 0.05% Tween20 (pH 7.4) was used, and measurement was performed at 25° C. The sensor chip used was a Series S SA chip (GE Healthcare) onto which CaptureSelect Human Fab-kappa Kinetics Biotin Conjugate (Thermo Fisher Scientific) was immobilized. An antibody of interest was captured onto this chip, and each FcγR diluted with the running buffer was allowed to interact with it. The chip was regenerated using 10 mM Glycine-HCl (pH 1.5), and repeatedly used to capture antibodies and perform measurement. The dissociation constants KD (mol/L) of each antibody for FcγRs were calculated using Biacore Insight Evaluation Software, with a steady state affinity model for the dissociation constant for FcγRIIb and a 1:1 Langmuir binding model for the dissociation constants for the other FcγRs (Table 48).

[2] = biological target: hFcγRIIIaV on hFcγRIIIaV-expressing Jurkat cells (human, UniProt P08637 17-254); test: cell-based or functional assay
Sequence of hFcγRIIIaV on hFcγRIIIaV-expressing Jurkat cells (P08637 17-254, form in doubt): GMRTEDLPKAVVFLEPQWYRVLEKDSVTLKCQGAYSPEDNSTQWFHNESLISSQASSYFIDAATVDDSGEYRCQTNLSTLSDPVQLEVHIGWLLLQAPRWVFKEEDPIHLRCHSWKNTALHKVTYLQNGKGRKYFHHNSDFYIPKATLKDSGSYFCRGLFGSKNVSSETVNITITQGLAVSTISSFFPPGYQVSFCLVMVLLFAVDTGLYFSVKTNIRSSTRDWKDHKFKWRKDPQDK

[3] = biological target: T2, human FcγRIIIa V extracellular domain (human, UniProt P08637 17-208); test: SPR Biacore 8K+; KD of G1d divided by KD of this antibody;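 further: antibodies captured on an anti-Fab-kappa streptavidin chip, soluble FcγR ectodomains flowed over, KD by steady-state fit for FcγRIIb and Langmuir kinetic model for the other receptors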
T2 construct: extracellular domain; also called hFcγR IIIa V
T2 sequence (P08637 17-208 F176V limits assumed): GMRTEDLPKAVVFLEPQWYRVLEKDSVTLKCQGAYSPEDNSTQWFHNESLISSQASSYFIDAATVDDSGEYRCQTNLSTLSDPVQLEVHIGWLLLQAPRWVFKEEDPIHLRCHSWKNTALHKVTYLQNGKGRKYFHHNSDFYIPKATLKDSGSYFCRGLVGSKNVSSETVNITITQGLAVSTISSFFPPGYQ

[4] = biological target: T3, human FcγRIIa R extracellular domain (human, UniProt P12318 34-217); test: as above
T3 construct: extracellular domain; also called hFcγR IIa R
T3 sequence (looked up): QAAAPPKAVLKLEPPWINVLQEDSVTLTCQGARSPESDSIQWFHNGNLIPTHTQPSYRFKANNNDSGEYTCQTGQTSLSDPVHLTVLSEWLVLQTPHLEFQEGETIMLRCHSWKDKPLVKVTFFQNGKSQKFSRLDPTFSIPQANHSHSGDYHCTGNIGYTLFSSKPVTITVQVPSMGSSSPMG

[5] = biological target: T4, human FcγRIIIa F extracellular domain (human, UniProt P08637 17-208); test: as above
T4 construct: extracellular domain; also called hFcγR IIIa F
T4 sequence (P08637 17-208): as the sequence (P08637 17-208 F176V limits assumed) above, with V160F counted along it

[6] = biological target: T1, human FcγRIIb extracellular domain; test: as above
[7] = biological target: T5, human FcγRIa extracellular domain (human, UniProt P12314 16-292); test: as above
T5 construct: extracellular domain; also called hFcγR Ia; hFcγRIa
T5 sequence (P12314 16-292): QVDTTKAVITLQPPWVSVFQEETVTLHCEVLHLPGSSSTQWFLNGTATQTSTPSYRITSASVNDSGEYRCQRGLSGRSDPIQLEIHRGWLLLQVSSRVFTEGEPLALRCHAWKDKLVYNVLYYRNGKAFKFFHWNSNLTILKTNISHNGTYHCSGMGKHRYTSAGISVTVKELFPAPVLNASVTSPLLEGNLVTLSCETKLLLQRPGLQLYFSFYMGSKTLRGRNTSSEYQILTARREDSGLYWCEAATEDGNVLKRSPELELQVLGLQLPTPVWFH

[8] = biological target: T6, human FcγRIIa H extracellular domain (human, UniProt P12318 34-217); test: as above
T6 construct: extracellular domain; also called hFcγR IIa H
T6 sequence (looked up): T3 sequence (looked up) with R134H

[9] = biological target: T7, hFcγRIIaH on hFcγRIIaH-expressing Jurkat cells (human, UniProt P12318 34-317); test: cell-based or functional assay
T7 sequence (looked up): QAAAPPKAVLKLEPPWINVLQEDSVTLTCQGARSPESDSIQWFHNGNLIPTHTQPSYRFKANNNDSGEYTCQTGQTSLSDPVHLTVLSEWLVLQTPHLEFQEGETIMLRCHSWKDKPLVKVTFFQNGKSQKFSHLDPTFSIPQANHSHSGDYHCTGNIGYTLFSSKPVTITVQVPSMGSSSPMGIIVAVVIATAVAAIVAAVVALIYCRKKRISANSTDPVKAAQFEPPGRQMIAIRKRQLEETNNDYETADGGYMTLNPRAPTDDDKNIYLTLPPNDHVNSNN

[10] = biological target: T8, human C1q protein (Calbiochem) (human, UniProt P02745 23-245; P02746 28-253; P02747 29-245); test: ELISA: antibody coated on the plate at the varied concentration, hC1q 3 µg/mL added, detected with HRP-conjugated anti-hC1q antibody, O.D (450-690nm)
T8 construct: bought; also called hC1q
T8 sequence (P02745 23-245 limits assumed, chain 1 of 3): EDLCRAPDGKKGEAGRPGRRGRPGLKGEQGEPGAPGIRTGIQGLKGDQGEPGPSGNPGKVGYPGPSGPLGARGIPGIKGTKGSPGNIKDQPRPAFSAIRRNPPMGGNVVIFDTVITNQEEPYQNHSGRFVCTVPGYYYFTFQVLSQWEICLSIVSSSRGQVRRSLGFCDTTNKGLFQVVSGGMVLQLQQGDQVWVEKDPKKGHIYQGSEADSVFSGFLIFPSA
T8 sequence (P02746 28-253 limits assumed, chain 2 of 3): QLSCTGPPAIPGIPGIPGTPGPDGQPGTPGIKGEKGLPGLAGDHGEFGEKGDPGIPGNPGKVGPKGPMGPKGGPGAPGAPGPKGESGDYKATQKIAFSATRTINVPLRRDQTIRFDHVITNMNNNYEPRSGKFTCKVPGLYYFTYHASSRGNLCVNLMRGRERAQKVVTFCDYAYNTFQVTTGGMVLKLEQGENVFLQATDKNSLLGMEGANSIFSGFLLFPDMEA
T8 sequence (P02747 29-245 limits assumed, chain 3 of 3): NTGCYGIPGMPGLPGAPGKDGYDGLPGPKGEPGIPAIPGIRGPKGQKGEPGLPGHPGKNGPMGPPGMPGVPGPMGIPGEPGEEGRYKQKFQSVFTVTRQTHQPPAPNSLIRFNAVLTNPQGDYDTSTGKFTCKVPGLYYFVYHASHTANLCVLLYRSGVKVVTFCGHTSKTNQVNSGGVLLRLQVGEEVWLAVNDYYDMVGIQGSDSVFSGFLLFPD
Method: The antigen used was a human C1q protein (hC1q).
First, a 96-well maxisorp plate (Thermo fisher) was coated at 4° C. overnight with 50 μL of solutions containing each antibody prepared at 30, 10, 3, 1, 0.3, 0.1, and 0.03 μg/mL in PBS. Each well of the plate was washed with Wash buffer to remove the antibody not bound to the plate, and then the wells were blocked with 200 μL of Blocking/dilution Buffer at room temperature for 2 hours or longer. After the Blocking/dilution Buffer was removed from each well, hC1q (Calbiochem) prepared such that the final concentration was 3 μg/mL in Blocking/dilution Buffer was added at 50 μL per well. The plate was then allowed to stand at room temperature for 1 hour to allow hC1q to bind to the antibody within each well. After washing with Wash Buffer, 50 μL of an HRP-conjugated anti-hC1q antibody (AbDSerotec) diluted with Blocking/dilution Buffer was added to each well, and the plate was incubated while standing for 1 hour. After washing with Wash Buffer, TMB single solution (Invitrogen) was added. The color development reaction of the solution in each well was stopped by addition of Stop Buffer, and then the developed color was measured by absorbance at 450 nm and 690 nm.

[11] = biological target: T2, human FcγRIIIa V extracellular domain; test: SPR Biacore 8K+; KD for FcγRIIb divided by KD for this FcγR;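 further: antibodies captured on an anti-human Fab kappa SA chip with soluble human FcγR ectodomains flowed over, FcγRIIb KD from steady-state fit, other FcγR KD from Langmuir model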
[12] = biological target: T3, human FcγRIIa R extracellular domain; test: as above
[13] = biological target: T4, human FcγRIIIa F extracellular domain; test: as above
[14] = biological target: T6, human FcγRIIa H extracellular domain; test: as above
[15] = biological target: T2, human FcγRIIIa V extracellular domain; test: SPR Biacore 8K+, antibody captured, FcγR as analyte, 1:1 Langmuir model;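 further: antibodies captured on a streptavidin chip through a biotinylated anti-human Fab kappa reagent, with FcγR extracellular domains injected in pH 7.4 phosphate buffer at 25 °C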
Method: as §1

[16] = biological target: T3, human FcγRIIa R extracellular domain; test: as above
Method: as §1

[17] = biological target: T4, human FcγRIIIa F extracellular domain; test: as above
Method: as §1

[18] = biological target: T5, human FcγRIa extracellular domain; test: as above
Method: as §1

[19] = biological target: T6, human FcγRIIa H extracellular domain; test: as above
Method: as §1

B1: H240-Kn443/L73-k0//H240-Hl408/L73-k0 (antibody, human IgG1, kappa)
heavy 1: QDQLVQSGAEVKKPGASVKVSCKASGFNIKDTYIQWVRQAPGQGLEWMGRIDPLRKQTKYREKFEGRVTITADTSTNTAYMELSSLRSEDTAVYYCVRSGREFDYWGQGTLVTVSSASTKGPSVFPLAPSSKSTSGGTAALGCLVKDYFPEPVTVSWNSGALTSGVHTFPAVLQSSGLYSLSSVVTVPSSSLGTQTYICNVNHKPSNTKVDKKVEPKSCDKTHTCPPCPAPEFQWGPMVFLFPPKPKDTLMISRTPEVTCVVVDVSDEEPEVKFNWYVDGVEVHNAKTKPREEQYNATYRVVSVLTVLHQDWLNGKEYKCKVSNDALPAPIEKTISKAKGQPREPQVCTLPPSRDELTKNQVSLWCLVKGFYPSDIAVEWESNGQPENNYKTTPPVLDSDGSFFLYSKLTVDKSRWQQGNVFSCSVMHEALHNHYTQKSLSLSP
heavy 2: QDQLVQSGAEVKKPGASVKVSCKASGFNIKDTYIQWVRQAPGQGLEWMGRIDPLRKQTKYREKFEGRVTITADTSTNTAYMELSSLRSEDTAVYYCVRSGREFDYWGQGTLVTVSSASTKGPSVFPLAPSSKSTSGGTAALGCLVKDYFPEPVTVSWNSGALTSGVHTFPAVLQSSGLYSLSSVVTVPSSSLGTQTYICNVNHKPSNTKVDKKVEPKSCDKTHTCPPCPAPELLAGPSVFLFPPKPKDTLMISRTPEVTCVVVDVSHEEPEVKFNWYVDGVEVHNAKTKPREEQYNATYRVVSVLTVLHQDWLNGKEYKCKVSNDALPAPIEETISKAKGQPREPQVYTLPPSRCELTKNQVSLSCAVKGFYPSDIAVEWESNGQPENNYKTTPPVLDSDGSFFLVSKLTVDKSRWQQGNVFSCSVMHEALHNHYTQKSLSLSP
light: DIQMTQSPSSLSASVGDRVTITCRASQDIHKYIAWYQQKPGQAPRLLIQYTSTLQPGVPSRFSGSGSGTDYTFTISSLQPEDIATYYCLQYEQLRTFGGGTKVEIKRTVAAPSVFIFPPSDEQLKSGTASVVCLLNNFYPREAKVQWKVDNALQSGNSQESVTEQDSKDSTYSLSSTLTLSKADYEKHKVYACEVTHQGLSSPVTKSFNRGEC
notes: also called EGL-ART3; ART3
**Q.** What does the source list for B1?
**A.** Kd [1]: 6330 nM; EC50 value (hFcγRIIIaV ADCC Reporter Bioassay, Hepa1-6/hEREG target cells) [2]: 0.00153 mg/L; Relative value to KD between G1d and hFcgRs [3]: 114; Relative value to KD between G1d and hFcgRs [4]: 13.7; Relative value to KD between G1d and hFcgRs [5]: 185; Relative value to KD between G1d and hFcgRs [6]: 1.6; Relative value to KD between G1d and hFcgRs [7]: 0.5; Relative value to KD between G1d and hFcgRs [8]: 32.1; EC50 value (hFcγRIIaH ADCP Reporter Bioassay, Hepa1-6/hEREG target cells) [9]: 0.0158 mg/L; binding result [10]: binds; A/I ratio (KD for FcγRIIb divided by KD for each FcγR) [11]: 2000; A/I ratio (KD for FcγRIIb divided by KD for each FcγR) [12]: 52.4; A/I ratio (KD for FcγRIIb divided by KD for each FcγR) [13]: 396; A/I ratio (KD for FcγRIIb divided by KD for each FcγR) [14]: 181; Kd [15]: 3.16 nM; Kd [16]: 121 nM; Kd [17]: 16 nM; Kd [18]: 0.172 nM; Kd [19]: 35 nM

B2: H240-Kn461/L73-k0//H240-Hl443/L73-k0 (antibody, human IgG1, kappa)
heavy 1: B1 heavy 1 with T249V, T306P, I331E
heavy 2: B1 heavy 2 with T249V, T306P, I331E
light: B1 light
notes: also called EGL-ART8; ART8
**Q.** How did the Kd [1] turn out when B2 was run?
**A.** 3530 nM

**Q.** And the “EC50 value (hFcγRIIIaV ADCC Reporter Bioassay, Hepa1-6/hEREG target cells)” value [2]?
**A.** 0.00107 mg/L

**Q.** And the “Relative value to KD between G1d and hFcgRs” value (“Relative value” for short) [3]?
**A.** 695

**Q.** And the “Relative value” value [4]?
**A.** 13.2

**Q.** What about the “Relative value” value [5] of the same binder?
**A.** 1970

**Q.** And the “Relative value” value [6]?
**A.** 2.8

**Q.** And the “Relative value” value [7]?
**A.** 3.2

**Q.** What about the “Relative value” value [8] of the same binder?
**A.** 15

**Q.** And the “EC50 value (hFcγRIIaH ADCP Reporter Bioassay, Hepa1-6/hEREG target cells)” value [9]?
**A.** 0.0171 mg/L

**Q.** Does B2 bind [10]?
**A.** binds

**Q.** And the “A/I ratio (KD for FcγRIIb divided by KD for each FcγR)” value [11]?
**A.** 6850

**Q.** And the “A/I ratio (KD for FcγRIIb divided by KD for each FcγR)” value [12]?
**A.** 28.1

**Q.** What about the “A/I ratio (KD for FcγRIIb divided by KD for each FcγR)” value [13] of the same binder?
**A.** 2350

**Q.** And the “A/I ratio (KD for FcγRIIb divided by KD for each FcγR)” value [14]?
**A.** 47.2

**Q.** What about the Kd [15] of the same binder?
**A.** 0.51 nM

**Q.** And the Kd [16]?
**A.** 126 nM

**Q.** What about the Kd [17] of the same binder?
**A.** 1.5 nM

**Q.** And the Kd [18]?
**A.** 0.028 nM

**Q.** And the Kd [19]?
**A.** 74.9 nM

B3: H240-Kn462/L73-k0//H240-Hl441/L73-k0 (antibody, human IgG1, kappa)
heavy 1: B1 heavy 1 with T249V, T306P
heavy 2: B1 heavy 2 with T249V, T306P
light: B1 light
notes: also called EGL-ART5; ART5
**Q.** How did the Kd [1] turn out when B3 was run?
**A.** 7960 nM

**Q.** And the “EC50 value (hFcγRIIIaV ADCC Reporter Bioassay, Hepa1-6/hEREG target cells)” value [2]?
**A.** 0.00167 mg/L

**Q.** And the “Relative value” value [3]?
**A.** 92.9

**Q.** What about the “Relative value” value [4] of the same binder?
**A.** 10.4

**Q.** What about the “Relative value” value [5] of the same binder?
**A.** 148

**Q.** What about the “Relative value” value [6] of the same binder?
**A.** 1.3

**Q.** What about the “Relative value” value [7] of the same binder?
**A.** 0.5

**Q.** And the “Relative value” value [8]?
**A.** 33.9

**Q.** And the “EC50 value (hFcγRIIaH ADCP Reporter Bioassay, Hepa1-6/hEREG target cells)” value [9]?
**A.** 0.0245 mg/L

**Q.** Does B3 bind [10]?
**A.** binds

**Q.** What about the “A/I ratio (KD for FcγRIIb divided by KD for each FcγR)” value [11] of the same binder?
**A.** 2060

**Q.** And the “A/I ratio (KD for FcγRIIb divided by KD for each FcγR)” value [12]?
**A.** 49.9

**Q.** What about the “A/I ratio (KD for FcγRIIb divided by KD for each FcγR)” value [13] of the same binder?
**A.** 399

**Q.** What about the “A/I ratio (KD for FcγRIIb divided by KD for each FcγR)” value [14] of the same binder?
**A.** 240

**Q.** What about the Kd [15] of the same binder?
**A.** 3.86 nM

**Q.** What about the Kd [16] of the same binder?
**A.** 160 nM

**Q.** What about the Kd [17] of the same binder?
**A.** 20 nM

**Q.** And the Kd [18]?
**A.** 0.169 nM

**Q.** What about the Kd [19] of the same binder?
**A.** 33.2 nM

B4: H240-G1d/L73-k0 (antibody, human IgG1, kappa)
heavy: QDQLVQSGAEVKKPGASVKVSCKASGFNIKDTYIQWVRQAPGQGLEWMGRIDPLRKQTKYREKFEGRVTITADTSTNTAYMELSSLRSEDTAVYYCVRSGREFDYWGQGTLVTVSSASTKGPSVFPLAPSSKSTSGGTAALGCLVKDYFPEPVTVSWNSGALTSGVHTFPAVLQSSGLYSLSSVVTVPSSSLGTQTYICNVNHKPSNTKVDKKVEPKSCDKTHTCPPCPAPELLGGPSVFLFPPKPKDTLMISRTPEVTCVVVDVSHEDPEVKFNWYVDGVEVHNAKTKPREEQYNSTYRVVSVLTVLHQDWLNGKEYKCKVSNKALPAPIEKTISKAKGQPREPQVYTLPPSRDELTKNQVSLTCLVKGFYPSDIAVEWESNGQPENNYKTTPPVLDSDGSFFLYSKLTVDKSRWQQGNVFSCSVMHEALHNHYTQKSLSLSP
light: B1 light
notes: Anti-human Epiregulin antibody with the human IgG1 constant region G1d (C-terminal Gly and Lys deleted); also called EGL-G1d
**Q.** What does the source list for B4?
**A.** Kd [1]: 10100 nM; EC50 value (hFcγRIIIaV ADCC Reporter Bioassay, Hepa1-6/hEREG target cells) [2]: 0.0463 mg/L; Relative value to KD between G1d and hFcgRs [3]: 1; Relative value to KD between G1d and hFcgRs [4]: 1; Relative value to KD between G1d and hFcgRs [5]: 1; Relative value to KD between G1d and hFcgRs [6]: 1; Relative value to KD between G1d and hFcgRs [7]: 1; Relative value to KD between G1d and hFcgRs [8]: 1; binding result [10]: binds; A/I ratio (KD for FcγRIIb divided by KD for each FcγR) [11]: 28.1; A/I ratio (KD for FcγRIIb divided by KD for each FcγR) [12]: 6.1; A/I ratio (KD for FcγRIIb divided by KD for each FcγR) [13]: 3.4; A/I ratio (KD for FcγRIIb divided by KD for each FcγR) [14]: 8.9; Kd [15]: 358 nM; Kd [16]: 1660 nM; Kd [17]: 2960 nM; Kd [18]: 0.0901 nM; Kd [19]: 1120 nM

B5: EGL-G4d (antibody, human IgG4 S228P, kappa)
heavy: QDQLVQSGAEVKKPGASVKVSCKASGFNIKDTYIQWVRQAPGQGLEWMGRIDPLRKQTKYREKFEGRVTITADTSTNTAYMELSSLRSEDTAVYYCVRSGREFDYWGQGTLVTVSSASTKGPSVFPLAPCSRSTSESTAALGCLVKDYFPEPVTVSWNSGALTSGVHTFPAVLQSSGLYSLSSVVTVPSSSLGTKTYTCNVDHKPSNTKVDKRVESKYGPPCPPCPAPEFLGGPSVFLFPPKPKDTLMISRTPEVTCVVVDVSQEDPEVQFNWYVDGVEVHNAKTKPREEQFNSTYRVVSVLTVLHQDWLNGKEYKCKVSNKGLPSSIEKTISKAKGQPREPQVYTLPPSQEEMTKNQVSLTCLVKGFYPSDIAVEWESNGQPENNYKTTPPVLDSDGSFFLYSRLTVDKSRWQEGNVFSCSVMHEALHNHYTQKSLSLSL
light: B1 light
**Q.** Does B5 bind [10]?
**A.** no binding (tested: 30 µg/mL)
